Measurements: the supplement of paper PMC10724198
± gives the standard deviation of the averaged measurements.

What was measured:
[1] = test system: Saccharomyces cerevisiae; experiment: protein stability index of tFT-peptide fusion (C-terminal peptide) (PSI (0-1 scale)); higher = more stable (slower turnover)
Description: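 MPS profiling in S. cerevisiae of the tFT-X12 degron library: putative degron peptides plus stable controls, 12 aa, fused to the C-terminus of a sfGFP-mCherry timer. Cells are FACS-sorted into 8 mCherry/sfGFP bins and deep-sequenced. PSI runs from 0 (unstable) to 1 (stable). Backgrounds are wild type, das1Δ and doa10Δ at 30 °C, and wild type, das1Δ, cdc34-1 and cdc53-1 at 37 °C; 2-3 technical replicates each.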

[2] = test system: Saccharomyces cerevisiae; experiment: as above; settings: genetic background: wild type; temperature: 30 C
[3] = genetic background: cdc34-1, temperature: 37 C
[4] = genetic background: cdc53-1, temperature: 37 C
[5] = genetic background: das1 deletion, temperature: 30 C
[6] = genetic background: das1 deletion, temperature: 37 C
[7] = genetic background: doa10 deletion, temperature: 30 C
[8] = genetic background: wild type, temperature: 30 C
[9] = genetic background: wild type, temperature: 37 C
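Further: PSI is a weighted mean of sequencing reads over stability bins, variants kept only with over 10 reads, mCherry proximal and sfGFP distal, peptide attached via GGGS linker.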

Sequence | protein stability index [1, 3] | protein stability index [1, 4] | protein stability index [1, 5] | protein stability index [1, 6] | protein stability index [1, 7] | protein stability index [1, 8] | protein stability index [1, 9] | protein stability index [2]
WRVVVSCALHVC | 0.123 ± 0.014 | 0.167 ± 0.0054 | 0.169 ± 0.017 | 0.274 ± 0.0034 | 0.0395 ± 0.017 | 0.0423 ± 0.009 | 0.0863 ± 0.026 | 0.085736 ± 1.1e-05
WSCFLLLLSLSL | 0.424 ± 0.056 | 0.4452 ± 0.0035 | 0.417 ± 0.039 | 0.5236 ± 0.0051 | 0.482 ± 0.013 | 0.411 ± 0.011 | 0.496 ± 0.011 | 0.45 ± 0.0067
WSFAPRLRCSYL | 0.927 ± 0.0095 | 0.925 ± 0.012 | 0.784 ± 0.029 | 0.883 ± 0.012 | 0.7642 ± 0.004 | 0.792 ± 0.048 | 0.878 ± 0.029 | 0.809 ± 0.055
WSMSSPPLLLAS | 0.314 ± 0.014 | 0.301 ± 0.017 | 0.272 ± 0.017 | 0.377 ± 0.0019 | 0.22 ± 0.0085 | 0.276 ± 0.013 | 0.349 ± 0.019 | 0.36 ± 0.0058
WVIWFFVAACLR | 0.219 ± 0.006 | 0.24 ± 0.018 | 0.209 ± 0.024 | 0.347 ± 0.025 | 0.239 ± 0.0077 | 0.212 ± 0.022 | 0.311 ± 0.0079 | 0.3339 ± 0.00096
WVVVGWVGVGFR | 0.508 ± 0.029 | 0.548 ± 0.038 | 0.383 ± 0.027 | 0.5747 ± 0.0021 | 0.361 ± 0.019 | 0.378 ± 0.016 | 0.55387 ± 0.00053 | 0.445 ± 0.029
WVVWVLVGGFGG | 0.299 ± 0.022 | 0.42448 ± 0.00021 | 0.277 ± 0.036 | 0.4813 ± 0.0047 | 0.232 ± 0.0043 | 0.266 ± 0.021 | 0.449 ± 0.03 | 0.384 ± 0.032
WVVWWFACVFGV | 0.346 ± 0.009 | 0.404 ± 0.0089 | 0.286 ± 0.033 | 0.429 ± 0.019 | 0.264 ± 0.008 | 0.28 ± 0.019 | 0.413 ± 0.0073 | 0.309 ± 0.049
WVYVFVSLFFVV | 0.185 ± 0.0071 | 0.2552 ± 0.0011 | 0.204 ± 0.029 | 0.347 ± 0.013 | 0.196 ± 0.017 | 0.17 ± 0.018 | 0.289 ± 0.0062 | 0.263 ± 0.0029
WYLLCESCLLCL | 0.534 ± 0.021 | 0.536 ± 0.0079 | 0.406 ± 0.025 | 0.562 ± 0.011 | 0.39 ± 0.013 | 0.408 ± 0.025 | 0.558 ± 0.0046 | 0.494 ± 0.0075
WYVRVYVLSVES | 0.136 ± 0.021 | 0.176 ± 0.028 | 0.186 ± 0.029 | 0.3115 ± 0.0015 | 0.137 ± 0.0079 | 0.168 ± 0.018 | 0.264 ± 0.022 | 0.237 ± 0.019
YCAAVCFWGLYC | 0.522 ± 0.015 | 0.654 ± 0.023 | 0.541 ± 0.029 | 0.668 ± 0.012 | 0.13 ± 0.0034 | 0.154 ± 0.013 | 0.233 ± 0.011 | 0.242 ± 0.024
YDVQIEFCVVEV | 0.601 ± 0.035 | 0.57 ± 0.019 | 0.365 ± 0.03 | 0.5694 ± 0.0029 | 0.347 ± 0.004 | 0.379 ± 0.017 | 0.547 ± 0.019 | 0.442 ± 0.0093
YFFFFLHFNFAF | 0.145 ± 0.062 | 0.169 ± 0.036 | 0.246 ± 0.023 | 0.35 ± 0.0091 | 0.313 ± 0.034 | 0.225 ± 0.059 | 0.267 ± 0.021 | 0.2803 ± 0.002
YFFFYFFLLFHL | 0.265 ± 0.051 | 0.272 ± 0.036 | 0.332 ± 0.034 | 0.45 ± 0.045 | 0.416 ± 0.015 | 0.3115 ± 0.0019 | 0.429 ± 0.037 | 0.375 ± 0.071
YFWWLWMSFWVG | 0.4935 ± 0.0028 | 0.53 ± 0.011 | 0.43 ± 0.023 | 0.59 ± 0.066 | 0.419 ± 0.022 | 0.403 ± 0.015 | 0.539 ± 0.013 | 0.4702 ± 0.0044
YGWGFLFILTLM | 0.15 ± 0.032 | 0.153 ± 0.03 | 0.262 ± 0.038 | 0.317 ± 0.0042 | 0.14 ± 0.024 | 0.101 ± 0.018 | 0.151 ± 0.016 | 0.182 ± 0.01
YHGVYLARVLQA | 0.639 ± 0.0084 | 0.677 ± 0.021 | 0.604 ± 0.011 | 0.69 ± 0.015 | 0.243 ± 0.011 | 0.286 ± 0.024 | 0.501 ± 0.029 | 0.45 ± 0.041
YIFLLRFFFFFS | 0.367 ± 0.014 | 0.435 ± 0.0084 | 0.333 ± 0.042 | 0.515 ± 0.03 | 0.299 ± 0.011 | 0.304 ± 0.044 | 0.435 ± 0.022 | 0.358 ± 0.028
YILIKEVLYAVC | 0.169 ± 0.0061 | 0.171 ± 0.0086 | 0.182 ± 0.028 | 0.281 ± 0.0066 | 0.128 ± 0.023 | 0.17 ± 0.024 | 0.236 ± 0.0088 | 0.274 ± 0.018
